Data on two proteins can be found in publication PMC5437272, “ISCA1 is essential for mitochondrial Fe4S4 biogenesis in vivo” (Nature Communications, 2017).

Several values for one entry are separate records, joined by “and”; a condition that tells them apart may be missing. Equal values may be shown once.

This series deals with the molecule itself. The series can be described thus: SEC; analytical Superdex-75, 0.5 ml min^-1, buffer E (100 mM Tris-HCl pH 7.5, 100 mM NaCl, 5 mM DTT), calibrated with molecular weight standards; oligomerization state of the ISCA proteins. Background: SEC sorts molecules by how far they enter the pores of the column.

B1: His-ISCA2 (mouse recombinant ISCA2, mature form) (natural protein, UniProt Q9DCB8 38-154, looked up)
chain: TTSSIPEAGEGQIRLTDSCVQRLLEITEGSEFLRLQVEGGGCSGFQYKFSLDTVINPDDRVFEQGGARVVVDSDSLAFVKGAQVDFSQELIRSSFQVLNNPQAQQGCSCGSSFSVKV
notes: ISCA2, mouse, mature form cloned into pET-11a; theoretical mass of the His-tagged monomer 13,554 Da; As purified it holds a Fe2S2 cluster; also called Fe2S2-ISCA2; source: E. coli BL21(DE3)/pET-ISCA2, purified under anaerobic condition (Ni-NTA); not shown: His tag, N-terminal, kept
As usually defined, the stoichiometry N is the number of molecules, sites or subunits per partner or assembly. For the protein B1, the “stoichiometry N” value is 2.

B2: His-ISCA1 (mouse recombinant ISCA1, mature form) (natural protein, UniProt Q9D924 13-129, looked up)
chain: VSKRKLQPTRAALTLTPSAVNKIKQLLKDKPEHVGLKVGVRTRGCNGLSYSLEYTKTKGDSDEEVIQDGVRVFIEKKAQLTLLGTEMDYVEDKLSSEFVFNNPNIKGTCGCGESFHV
notes: ISCA1, mouse, mature form cloned into pET-11a; theoretical mass of the His-tagged monomer 13,898.8 Da; As purified it holds a Fe2S2 cluster; By gel filtration a mixture of dimer (main) and tetramer (minor); also called Fe2S2-ISCA1; source: E. coli BL21(DE3)/pET-ISCA1, purified aerobically (Ni-NTA); not shown: His tag, N-terminal, kept
For the protein B2, the “stoichiometry N” value was 2 and 4.
